B1: RBM26 (protein, UniProt Q5T8P6 1-1007, looked up)
RNA-binding protein 26: MVSKMIIENFEALKSWLSKTLEPICDADPSALAKYVLALVKKDKSEKELKALCIDQLDVFLQKETQIFVEKLFDAVNTKSYLPPPEQPSSGSLKVEFFPHQEKDIKKEEITKEEEREKKFSRRLNHSPPQSSSRYRENRSRDERKKDDRSRKRDYDRNPPRRDSYRDRYNRRRGRSRSYSRSRSRSWSKERLRERDRDRSRTRSRSRTRSRERDLVKPKYDLDRTDPLENNYTPVSSVPSISSGHYPVPTLSSTITVIAPTHHGNNTTESWSEFHEDQVDHNSYVRPPMPKKRCRDYDEKGFCMRGDMCPFDHGSDPVVVEDVNLPGMLPFPAQPPVVEGPPPPGLPPPPPILTPPPVNLRPPVPPPGPLPPSLPPVTGPPPPLPPLQPSGMDAPPNSATSSVPTVVTTGIHHQPPPAPPSLFTADTYDTDGYNPEAPSITNTSRPMYRHRVHAQRPNLIGLTSGDMDLPPREKPPNKSSMRIVVDSESRKRTIGSGEPGVPTKKTWFDKPNFNRTNSPGFQKKVQFGNENTKLELRKVPPELNNISKLNEHFSRFGTLVNLQVAYNGDPEGALIQFATYEEAKKAISSTEAVLNNRFIKVYWHREGSTQQLQTTSPKVMQPLVQQPILPVVKQSVKERLGPVPSSTIEPAEAQSASSDLPQNVTKLSVKDRLGFVSKPSVSATEKVLSTSTGLTKTVYNPAALKAAQKTLLVSTSAVDNNEAQKKKQEALKLQQDVRKRKQEILEKHIETQKMLISKLEKNKTMKSEDKAEIMKTLEVLTKNITKLKDEVKAASPGRCLPKSIKTKTQMQKELLDTELDLYKKMQAGEEVTELRRKYTELQLEAAKRGILSSGRGRGIHSRGRGAVHGRGRGRGRGRGVPGHAVVDHRPRALEISAFTESDREDLLPHFAQYGEIEDCQIDDSSLHAVITFKTRAEAEAAAVHGARFKGQDLKLAWNKPVTNISAVETEEVEPDEEEFQEESLVDDSLLQDDDEEEEDNESRSWRR
B2: DENR (protein, UniProt O43583 2-198, looked up)
Density-regulated protein: AADISESSGADCKGDPRNSAKLDADYPLRVLYCGVCSLPTEYCEYMPDVAKCRQWLEKNFPNEFAKLTVENSPKQEAGISEGQGTAGEEEEKKKQKRGGRGQIKQKKKTVPQKVTIAKIPRAKKKYVTRVCGLATFEIDLKEAQRFFAQKFSCGASVTGEDEIIIQGDFTDDIIDVIQEKWPEVDDDSIEDLGEVKK
B3: DCAF7 (protein, UniProt P61962 1-342, looked up)
DDB1- and CUL4-associated …: MSLHGKRKEIYKYEAPWTVYAMNWSVRPDKRFRLALGSFVEEYNNKVQLVGLDEESSEFICRNTFDHPYPTTKLMWIPDTKGVYPDLLATSGDYLRVWRVGETETRLECLLNNNKNSDFCAPLTSFDWNEVDPYLLGTSSIDTTCTIWGLETGQVLGRVNLVSGHVKTQLIAHDKEVYDIAFSRAGGGRDMFASVGADGSVRMFDLRHLEHSTIIYEDPQHHPLLRLCWNKQDPNYLATMAMDGMEVVILDVRVPCTPVARLNNHRACVNGIAWAPHSSCHICTAADDHQALIWDIQQMPRAIEDPILAYTAEGEINNVQWASTQPDWIAICYNNCLEILRV
B4: EIF4E2 (protein, UniProt O60573 1-245, looked up)
Eukaryotic translation …: MNNKFDALKDDDSGDHDQNEENSTQKDGEKEKTERDKNQSSSKRKAVVPGPAEHPLQYNYTFWYSRRTPGRPTSSQSYEQNIKQIGTFASVEQFWRFYSHMVRPGDLTGHSDFHLFKEGIKPMWEDDANKNGGKWIIRLRKGLASRCWENLILAMLGEQFMVGEEICGAVVSVRFQEDIISIWNKTASDQATTARIRDTLRRVLNLPPNTIMEYKTHTDSIKMPGRLGPQRLLFQNLWKPRLNVP
B5: SNRPA1 (protein, UniProt P09661 2-255, looked up)
U2 small nuclear …: VKLTAELIEQAAQYTNAVRDRELDLRGYKIPVIENLGATLDQFDAIDFSDNEIRKLDGFPLLRRLKTLLVNNNRICRIGEGLDQALPCLTELILTNNSLVELGDLDPLASLKSLTYLSILRNPVTNKKHYRLYVIYKVPQVRVLDFQKVKLKERQEAEKMFKGKRGAQLAKDIARRSKTFNPGAGLPTDKKKGGPSPGDVEAIKNAIANASTLAEVERLKGLLQSGQIPGRERRSGPTDDGEEEMEEDTVTNGS
B6: C22orf28 (protein, UniProt Q9Y3I0 1-505, looked up)
RNA-splicing ligase RtcB …: MSRSYNDELQFLEKINKNCWRIKKGFVPNMQVEGVFYVNDALEKLMFEELRNACRGGGVGGFLPAMKQIGNVAALPGIVHRSIGLPDVHSGYGFAIGNMAAFDMNDPEAVVSPGGVGFDINCGVRLLRTNLDESDVQPVKEQLAQAMFDHIPVGVGSKGVIPMNAKDLEEALEMGVDWSLREGYAWAEDKEHCEEYGRMLQADPNKVSARAKKRGLPQLGTLGAGNHYAEIQVVDEIFNEYAAKKMGIDHKGQVCVMIHSGSRGLGHQVATDALVAMEKAMKRDKIIVNDRQLACARIASPEGQDYLKGMAAAGNYAWVNRSSMTFLTRQAFAKVFNTTPDDLDLHVIYDVSHNIAKVEQHVVDGKERTLLVHRKGSTRAFPPHHPLIAVDYQLTGQPVLIGGTMGTCSYVLTGTEQGMTETFGTTCHGAGRALSRAKSRRNLDFQDVLDKLADMGIAIRVASPKLVMEEAPESYKNVTDVVNTCHDAGISKKAIKLRPIAVIKG

The molecules below were run on 3×MBT domain of L3MBTL1 (assay: Triple SILAC pull-down, 3xMBT/3xMBTD355N ratio (cytoplasmic, nuclear and chromatin fractions of 293T cells)). Details: SILAC ratio, pull-down 3xMBT vs 3xMBTD355N; experiment with UNC0638 in heavy SILAC media.
Assay type: binding, human
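For 3xMBT/D355N UNC Heavy in this document: proteins quantified with MaxQuant, requiring at least two unique peptides and quantification in both label directions, normalized to the mean of proteins from a digested loading control.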
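For 3xMBT/D355N UNC Light in this document: proteins quantified with MaxQuant, requiring at least two unique peptides and quantification in both label directions, normalized to the mean of proteins from a digested loading control.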
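For Candidate G9a/GLP target in this document: mass spectrometry (Q-Exactive) SILAC quantitation, DMSO/UNC0638 ratio computed after subtracting 3×MBTD355N mutant pull-down background, only proteins with at least twofold 3×MBT over mutant signal considered.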
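For Relative to UNC0638 Average in this document: mass spectrometry (Q-Exactive) SILAC quantitation, DMSO/UNC0638 ratio computed after subtracting 3×MBTD355N mutant pull-down background, only proteins with at least twofold 3×MBT over mutant signal considered.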
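For Relative to UNC0638 UNC Heavy in this document: mass spectrometry (Q-Exactive) SILAC quantitation, DMSO/UNC0638 ratio computed after subtracting 3×MBTD355N mutant pull-down background, only proteins with at least twofold 3×MBT over mutant signal considered.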
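For Relative to UNC0638 UNC Light in this document: mass spectrometry (Q-Exactive) SILAC quantitation, DMSO/UNC0638 ratio computed after subtracting 3×MBTD355N mutant pull-down background, only proteins with at least twofold 3×MBT over mutant signal considered.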

Molecule	3xMBT/D355N UNC Heavy
B1	2.44 log base 2
B2	2.50 log base 2
B3	1.67 log base 2
B4	1.89 log base 2
B5	2.94 log base 2
B6	2.49 log base 2

Same assay, conditions: SILAC ratio, pull-down 3xMBT vs 3xMBTD355N; experiment with UNC0638 in light SILAC media

Molecule	3xMBT/D355N UNC Light
B1	2.00 log base 2
B2	3.36 log base 2
B3	1.31 log base 2
B4	2.26 log base 2
B5	3.39 log base 2
B6	2.67 log base 2

The molecules below were run against T1, G9a and GLP (Homo sapiens, UniProt Q96KQ7+Q9H9B1) (assay: Triple SILAC pull-down after UNC0638 treatment of 293T cells, DMSO/UNC0638 ratio of protein captured by 3×MBT). Details: SILAC ratio DMSO/UNC0638 of protein pulled down with 3xMBT; UNC0638 in heavy SILAC media.
T1 sequence (Q96KQ7 2-1210 limits assumed): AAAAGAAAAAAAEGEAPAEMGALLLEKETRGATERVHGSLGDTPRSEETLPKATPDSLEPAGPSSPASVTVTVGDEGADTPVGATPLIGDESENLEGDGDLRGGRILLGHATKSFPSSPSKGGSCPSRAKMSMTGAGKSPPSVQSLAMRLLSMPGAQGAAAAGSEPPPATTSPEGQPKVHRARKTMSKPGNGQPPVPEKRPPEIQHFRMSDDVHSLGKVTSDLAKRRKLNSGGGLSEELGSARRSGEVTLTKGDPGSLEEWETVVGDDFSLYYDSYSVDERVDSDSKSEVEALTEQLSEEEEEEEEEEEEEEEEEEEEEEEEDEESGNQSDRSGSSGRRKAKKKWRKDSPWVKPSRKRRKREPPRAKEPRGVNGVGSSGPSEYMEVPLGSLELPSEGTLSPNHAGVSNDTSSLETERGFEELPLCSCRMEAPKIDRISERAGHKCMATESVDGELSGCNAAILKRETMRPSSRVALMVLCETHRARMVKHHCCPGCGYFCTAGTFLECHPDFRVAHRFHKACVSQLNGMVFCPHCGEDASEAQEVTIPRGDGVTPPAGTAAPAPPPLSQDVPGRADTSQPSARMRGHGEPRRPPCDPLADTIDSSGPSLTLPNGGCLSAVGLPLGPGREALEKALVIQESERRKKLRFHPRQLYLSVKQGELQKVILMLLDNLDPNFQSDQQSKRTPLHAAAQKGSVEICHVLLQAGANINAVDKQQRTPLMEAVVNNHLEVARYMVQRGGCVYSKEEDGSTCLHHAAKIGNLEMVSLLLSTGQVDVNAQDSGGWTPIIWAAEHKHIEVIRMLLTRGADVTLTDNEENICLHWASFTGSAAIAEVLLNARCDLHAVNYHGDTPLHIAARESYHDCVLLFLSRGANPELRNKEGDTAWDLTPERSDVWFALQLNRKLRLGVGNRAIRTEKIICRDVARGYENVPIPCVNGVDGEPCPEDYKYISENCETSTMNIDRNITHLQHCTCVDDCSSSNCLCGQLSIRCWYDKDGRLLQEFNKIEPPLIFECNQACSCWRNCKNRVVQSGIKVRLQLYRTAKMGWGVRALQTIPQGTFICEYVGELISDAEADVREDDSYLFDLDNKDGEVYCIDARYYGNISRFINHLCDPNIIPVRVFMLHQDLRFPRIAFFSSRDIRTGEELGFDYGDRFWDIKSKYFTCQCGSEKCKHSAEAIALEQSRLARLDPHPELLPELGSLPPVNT
T1 sequence (Q9H9B1 2-1298 limits assumed): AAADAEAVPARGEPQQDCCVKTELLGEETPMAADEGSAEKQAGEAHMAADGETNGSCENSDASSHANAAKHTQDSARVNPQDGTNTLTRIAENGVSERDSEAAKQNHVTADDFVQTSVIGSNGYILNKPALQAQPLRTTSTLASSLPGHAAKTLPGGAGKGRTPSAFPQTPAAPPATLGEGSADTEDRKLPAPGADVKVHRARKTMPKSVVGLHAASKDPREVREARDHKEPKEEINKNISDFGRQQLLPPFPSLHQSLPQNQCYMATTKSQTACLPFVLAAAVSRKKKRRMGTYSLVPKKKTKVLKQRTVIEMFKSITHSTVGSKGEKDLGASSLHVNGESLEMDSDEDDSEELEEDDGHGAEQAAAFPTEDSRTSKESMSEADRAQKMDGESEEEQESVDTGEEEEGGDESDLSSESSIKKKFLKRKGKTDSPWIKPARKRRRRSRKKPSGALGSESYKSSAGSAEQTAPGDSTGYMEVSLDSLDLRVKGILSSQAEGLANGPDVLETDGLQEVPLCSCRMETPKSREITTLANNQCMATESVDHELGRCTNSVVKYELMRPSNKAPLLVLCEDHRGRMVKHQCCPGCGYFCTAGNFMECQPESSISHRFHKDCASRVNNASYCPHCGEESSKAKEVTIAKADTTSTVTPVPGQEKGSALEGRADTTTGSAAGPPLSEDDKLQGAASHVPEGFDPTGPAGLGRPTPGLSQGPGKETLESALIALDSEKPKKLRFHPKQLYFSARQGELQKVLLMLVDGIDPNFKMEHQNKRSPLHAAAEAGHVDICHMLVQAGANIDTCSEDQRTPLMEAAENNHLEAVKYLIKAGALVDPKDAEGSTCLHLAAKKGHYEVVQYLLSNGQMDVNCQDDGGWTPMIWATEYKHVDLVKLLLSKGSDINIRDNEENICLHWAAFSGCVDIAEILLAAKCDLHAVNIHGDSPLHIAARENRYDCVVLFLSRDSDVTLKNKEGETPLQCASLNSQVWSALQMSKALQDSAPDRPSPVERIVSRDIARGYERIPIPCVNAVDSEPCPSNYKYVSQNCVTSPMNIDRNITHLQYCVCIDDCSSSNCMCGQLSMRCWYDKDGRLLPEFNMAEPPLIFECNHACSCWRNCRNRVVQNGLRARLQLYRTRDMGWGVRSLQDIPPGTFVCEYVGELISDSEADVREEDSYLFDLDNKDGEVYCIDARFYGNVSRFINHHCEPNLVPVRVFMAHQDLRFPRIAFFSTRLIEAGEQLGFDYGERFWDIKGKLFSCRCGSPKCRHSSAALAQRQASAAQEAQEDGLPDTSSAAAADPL
Assay type: cell-based
Design: endogenous in cells; host or cells: HEK 293T

Molecule	Relative to UNC0638 UNC Heavy
B1	0.21 log base 2
B2	0.09 log base 2
B3	0.69 log base 2
B4	0.24 log base 2
B5	0.08 log base 2
B6	0.08 log base 2

Same assay, conditions: SILAC ratio DMSO/UNC0638 of protein pulled down with 3xMBT; UNC0638 in light SILAC media

Molecule	Relative to UNC0638 UNC Light
B1	0.08 log base 2
B2	0.20 log base 2
B3	0.48 log base 2
B4	0.06 log base 2
B5	0.22 log base 2
B6	0.22 log base 2

Same assay, conditions: average of UNC Light and UNC Heavy experiments

Molecule	Relative to UNC0638 Average
B1	0.14 log base 2
B2	0.14 log base 2
B3	0.59 log base 2
B4	0.15 log base 2
B5	0.15 log base 2
B6	0.15 log base 2

Same assay, conditions: reduced association with 3xMBT after UNC0638 treatment

Molecule	Candidate G9a/GLP target
B3	✓
